Laboratory results reported in patent US7820790B2, “IL-6 binding proteins” (Amgen Mountain View Inc., priority 2005, dated 2010).

Assays:
IL-6R = target: T1, IL-6R (Homo sapiens, UniProt P08887); conditions: dose-dependent manner; Nishimoto et al; cited from earlier work
T1 sequence (P08887 20-468): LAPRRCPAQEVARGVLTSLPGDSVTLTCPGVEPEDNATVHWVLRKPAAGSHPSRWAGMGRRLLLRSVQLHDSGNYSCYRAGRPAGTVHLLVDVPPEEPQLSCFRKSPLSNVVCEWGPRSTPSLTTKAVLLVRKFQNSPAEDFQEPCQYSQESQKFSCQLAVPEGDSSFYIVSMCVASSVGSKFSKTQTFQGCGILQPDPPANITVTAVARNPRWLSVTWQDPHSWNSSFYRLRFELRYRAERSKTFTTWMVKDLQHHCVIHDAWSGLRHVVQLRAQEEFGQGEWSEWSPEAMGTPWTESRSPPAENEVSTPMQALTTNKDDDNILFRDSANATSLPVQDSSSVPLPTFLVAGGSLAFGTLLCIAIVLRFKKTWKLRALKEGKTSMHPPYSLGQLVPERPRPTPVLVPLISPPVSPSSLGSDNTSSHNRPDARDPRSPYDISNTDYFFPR

[1] = system: Human heparinized-whole blood; assay: IL-6 stimulation of IgE in human whole blood; assay type: cell-based; conditions: 50 ng/ml IL-6, 6.5 hr; compared to unstimulated controls or anti-IL-6 mAb controls
Description: Human heparinized-whole blood was obtained from six normal individuals from Stanford University Blood Bank. The avimer used in these experiments was generated as described in the above examples.
Briefly, 500 ul of heparinized human blood from several donors was cultured in 12×75 mm tubes or individual wells of a 24 well plate in the presence of 50 ng/ml of human IL-6; exemplary IL-6/IgG binding tetramers, a negative control avimer, 0.01-600 nM; anti-IL-6 monoclonal antibody (Clone 6708-111, R&D Systems) or mouse IgG1 isotype control antibody (eBioscience), 3, 10 or 30 ug/ml, or no inhibitors. Inhibitors or controls were diluted in RPMI1640+10% human AB serum before addition to the cultures. Final volume was 1 ml per sample.
Samples were incubated for 6.5 hr at 37° C. with 5% CO2. Samples were removed from incubator and centrifuged at 1500 rpm for 10 minutes at room temperature. Plasma samples were divided in two portions and one set was shipped to Rules Based Medicine for determination of the concentrations of IL-6- and avimer-regulated analytes. The second set of plasma samples was stored at −80° C.

TF-1 cells = assay: Stimulation of TF-1 cell proliferation by rhIL-6 (control experiments); assay type: cell-based, human
Description: TF-1, a GM-CSF dependent human erythroleukemia cell line, was purchased from ATCC(CRL-2003). IL-6 is a potent stimulator of TF-1 cell proliferation. The use of TF-1 cells for determining efficacy of IL-6, IL-6R, and/or gp130 inhibitors is well-established in the art.
TF-1 cells were maintained in growth medium (RPMI 1640 supplemented with 50 uM 2-ME, antibiotic-antimycotic), 10% FBS and 5 ng/ml hGM-CSF (Leukine). Prior to assay, TF-1 cells were washed and cultured overnight in growth medium plus 1% FBS and Leukine. TF-1 cells were then washed three times with growth medium plus 1% FBS, without Leukine prior to the assay.
TF-1 cells (1×10^4/well) were cultured in the presence or absence of the anti-IL-6 inhibitors-hIL-6 mixture in a 96-well flat bottom plate (Becton Dickinson) in a final volume of 200 ul/well for 40 hr in a humidified incubator at 37° C., 5% CO2. Cells were pulse-labeled with 1 uCi/well of [^3H]-Thymidine (Amersham Biosciences) during the final 16 hr of culture. Plates were harvested with a semiautomatic cell harvester (Tomtec, Inc.) and [^3H]-Thymidine incorporation was measured using a Microbeta-counter (Wallac-Perkin Elmer). Results are expressed as average cpm from triplicate wells.
Control experiments determined 0.2 ng/mL as the EC50 of rhIL-6 for stimulation of TF-1 cell proliferation.

| Substance | HDL increase (IL-6R) [%] | LDL increase (IL-6R) | increase of IgE concentration in supernatants [1] | EC50 for stimulation of TF-1 cell proliferation (TF-1 cells) [ng/mL] |
| --- | --- | --- | --- | --- |
| MRA: humanized anti-IL-6R antibody (MRA) | ~26 | 12-23% |  |  |
| rhIL-6: recombinant human IL-6 (R&D Systems) |  |  | 2-3 fold | 0.2 |
